± gives the standard deviation of the averaged measurements.
System: ATP
Test: switch fluorescence ratio, 500 uM ATP over buffer (Cy3 cluster intensity, sum of 5 cycles each) (fold (ratio)); higher = stronger signal-on switching upon ATP binding; sequences stand for … in TCGTCGGCAGCGTCAGATGTGTATAAGAGACAGTTTTTTTTTTTTTTTTTTTTTTTTT…TC
Conditions: aptamer strand: ATP DNA aptamer (quencher-CACCTGGGGGAGTATTGCGGAGGAAGG + anchor), 100 nM annealed; ATP concentration: 500 uM
How it was run: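 The quencher-labelled ATP aptamer, at 100 nM, was annealed to Cy3-labelled switching-strand clusters on a modified Illumina MiSeq flow-cell. The clusters were imaged in selection buffer, then after 15 min with 500 uM ATP at 22 °C, and this buffer/ATP cycle ran five times with NaOH stripping and re-annealing between runs. Per-cluster fluorescence ratios, summed target-cycle over summed buffer-cycle Cy3 intensity, were averaged per switch-domain sequence. Clusters outside 100-1000 RFU were excluded.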
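Also: ATP exposure 15 min at 22 °C before imaging.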

| Sequence | switch fluorescence ratio |
| --- | --- |
| GACCTTTATA | 0.9914 ± 0.0062 |
| CGGTTATTGA | 1.02 ± 0.022 |
| AGGTTCACCC | 1.07 ± 0.08 |
| GATAGTTGTA | 1.01 ± 0.028 |
| TTAGGATAGT | 0.998 ± 0.027 |
| ATCATTCGGT | 0.9964 ± 0.0074 |
| TTTTTTGTGA | 1 ± 0.08 |
| TTTTGTTAGA | 1.03 ± 0.022 |
| ATTGTAGTGT | 1.01 ± 0.025 |
| GCTGAGAATG | 0.999 ± 0.021 |
| CGTCACCATG | 1.037 ± 0.0026 |
| TTTAGCTTTT | 1.04 ± 0.01 |
| TGGGTTAGGT | 0.977 ± 0.022 |
| TGGGGGAATG | 0.992 ± 0.0027 |
| GAAGGGTAAC | 1.03 ± 0.018 |
| TTTTCCATTT | 0.99 ± 0.023 |
| TGATGCGGGT | 0.98723 ± 6.3e-05 |
| GTCTACTGCT | 1.07 ± 0.028 |
| TTACGGCGCT | 1.06 ± 0.062 |
| TTTTGCTGTA | 1.04 ± 0.099 |
| CATTCTGCGG | 1.049 ± 0.002 |
| TGATTGTGGG | 1.03 ± 0.033 |
| TTGCGTGCCG | 0.98 ± 0.11 |
| AAGTATGGTA | 0.965 ± 0.075 |
| TGGGCAACTC | 1.06 ± 0.021 |

| Sequence | switch fluorescence ratio |
| --- | --- |
| GGGGATGCAG | 0.985 ± 0.049 |
| TGTCCGTTGG | 1.05 ± 0.084 |
| ATACTTTTGG | 1 ± 0.011 |
| CCTTGTATAA | 1.07 ± 0.014 |
| AATGGATTTT | 0.982 ± 0.013 |
| GTTCCGGCTG | 1.02 ± 0.023 |
| GGGAGAGAAC | 0.992 ± 0.012 |
| TAAAGAAGTG | 1.01 ± 0.033 |
| GAGGGGCAGT | 0.975 ± 0.02 |
| TCCTGAGTTA | 0.996 ± 0.011 |
| TATTGGATTA | 1.01 ± 0.026 |
| ATTTGTATTC | 1.03 ± 0.031 |
| TGTAAGGTCG | 1.013 ± 0.01 |
| GGAGCGGGGG | 1.02 ± 0.014 |
| TTGAGGGCCT | 0.979 ± 0.021 |
| TAACTTATAA | 0.991 ± 0.0024 |
| CGGTCAGGGG | 1.11 ± 0.023 |
| TTAACCGTTT | 1.09 ± 0.08 |
| AGCTTCGTTC | 1.014 ± 0.0052 |
| TTGGGTGTGC | 1.02 ± 0.061 |
| TTTGGGATTG | 1.07 ± 0.015 |
| TCTGGGCTTG | 0.999 ± 0.015 |
| CAGTGTTCCG | 0.977 ± 0.042 |
| CTCGGGGTGT | 1.02 ± 0.018 |
| TAATTAACAT | 0.9883 ± 0.0092 |

| Sequence | switch fluorescence ratio |
| --- | --- |
| TTGGTTCCGT | 1.01 ± 0.026 |
| TTGTGGGGAA | 1.12 ± 0.2 |
| AGTAGGGGAA | 0.995 ± 0.035 |
| AATTTTGCTG | 0.9662 ± 0.0053 |
| CGGAGGGGGG | 1.03 ± 0.062 |
| TGGTCTATTT | 0.965 ± 0.019 |
| AAGGGCGCAG | 0.993 ± 0.056 |
| GATTAGAGGG | 0.9877 ± 0.0081 |
| TTTGCCCTGG | 1.1 ± 0.08 |
| ACATTTTAAG | 1 ± 0.026 |
| CTAAGAAGCG | 1.1 ± 0.17 |
| AATGGGTATT | 0.987 ± 0.026 |
| GGGGTCAGAC | 1 ± 0.022 |
| TTTGGGGGAT | 1.02 ± 0.1 |
| CGTGCTTTTT | 1.01 ± 0.018 |
| CTTCTTTCTC | 1.051 ± 0.0084 |
| CGGGGGGTTA | 1.01 ± 0.033 |
| TTTTTAGTAT | 1.01 ± 0.035 |
| ATTGCGCCCG | 1.032 ± 0.0088 |
| AAGGGGACAG | 0.995 ± 0.03 |
| AAAATTTAAT | 1.01 ± 0.016 |
| TATGCGGGGC | 1.1 ± 0.12 |
| TTGGTTCAAG | 1.013 ± 0.0027 |
| CAGAGTTCGG | 1.03 ± 0.015 |
| ATGGGGGGAC | 0.987 ± 0.027 |

| Sequence | switch fluorescence ratio |
| --- | --- |
| GGGGGTCATG | 1.02 ± 0.073 |
| TTCCGGGATC | 1.91 ± 0.092 |
| TAAGGATATG | 1.01 ± 0.0069 |
| TTAGACGATT | 0.998 ± 0.025 |
| CGGGGTGTGC | 1.01 ± 0.031 |
| TTAGAAAGCA | 1 ± 0.033 |
| CTTGGGGTTA | 0.998 ± 0.023 |
| AAAGGGGCGC | 0.993 ± 0.035 |
| GTAACAGATT | 0.976 ± 0.039 |
| GGGGTACGGT | 1 ± 0.018 |
| ATTAGACAGC | 1.01 ± 0.032 |
| GAGGGAATTT | 1.01 ± 0.021 |
| AAAGGTGCCT | 1.05 ± 0.031 |
| CCAATTTGTG | 1 ± 0.028 |
| TCTGGGGGGT | 1.02 ± 0.035 |
| TTTAAATTTT | 1 ± 0.03 |
| AGCACAGGGG | 0.985 ± 0.045 |
| CCTCAGAGGG | 1.24 ± 0.22 |
| TTTAGTTTGT | 0.99 ± 0.036 |
| CTATCCGGAC | 1.25 ± 0.014 |
| CCAATGCAGC | 3.22 ± 0.27 |
| TTTAGTGCTT | 0.997 ± 0.03 |
| AAGTCGTCCG | 0.985 ± 0.044 |
| TAATCACGGG | 1.09 ± 0.017 |
| CAAAGATAGT | 0.996 ± 0.037 |

| Sequence | switch fluorescence ratio |
| --- | --- |
| AAGAGGCCCC | 0.9991 ± 0.0067 |
| GTTAGTAAGG | 1.01 ± 0.041 |
| AGGGGGGTGA | 1.017 ± 0.0015 |
| TTTGACGGGA | 1.01 ± 0.012 |
| TTGGCCACCG | 1.08 ± 0.096 |
| AGGGGGGTTA | 0.984 ± 0.04 |
| GGTGAGCCTT | 0.987 ± 0.012 |
| GTTGGAAAGT | 0.99 ± 0.022 |
| ATTTTTGGGA | 0.981 ± 0.028 |
| CAATAATGTG | 0.968 ± 0.034 |
| CAGACAGTTT | 0.993 ± 0.013 |
| AGTGTTTCAG | 0.956 ± 0.018 |
| GTGGTTTGGA | 0.989 ± 0.031 |
| GGAATACGTT | 1.08 ± 0.061 |
| GCGGGGGGGC | 1.01 ± 0.017 |
| AAAAAGAAGA | 0.976 ± 0.033 |
| GTAAATATGG | 0.987 ± 0.024 |
| TAAAAGCTAA | 1 ± 0.031 |
| AAAATGCGCA | 1.02 ± 0.037 |
| CCGCGGCGGG | 1.04 ± 0.028 |
| GGAGGGCAGG | 0.9882 ± 0.0096 |
| TACGAGGGGA | 1.03 ± 0.026 |
| ATGGTAGCGC | 1 ± 0.039 |
| GAGAGGTCGG | 1.012 ± 0.0016 |
| GGCGGTTACT | 1.04 ± 0.015 |

| Sequence | switch fluorescence ratio |
| --- | --- |
| TTTTCAAGTA | 0.9789 ± 0.0094 |
| CGGTTTAGGC | 0.93 ± 0.026 |
| TGGGTTTTCA | 0.984 ± 0.016 |
| TTGGGTGCTG | 1.01 ± 0.032 |
| CCTGGCAGAG | 1.22 ± 0.048 |
| CAATTTTATA | 1.033 ± 0.0026 |
| GGATTTAAAT | 0.976 ± 0.042 |
| AAGGGTATAT | 0.9834 ± 0.0063 |
| GGACTCTGGG | 0.966 ± 0.058 |
| ACTTTTGTTT | 1.02 ± 0.015 |
| TAGTTGTAGG | 1.04 ± 0.051 |
| TTTCATATGC | 0.995 ± 0.073 |
| GAATGGGGGC | 0.98 ± 0.036 |
| TGATCGCTTT | 1.026 ± 0.01 |
| GTGGGGATCC | 1.025 ± 0.0046 |
| TCGTAAAAA | 1.07 ± 0.13 |
| GGGTAACGGA | 1.03 ± 0.04 |
| GTTTGTTGTT | 0.9819 ± 0.0016 |
| TAGCCCCCAG | 1.6 ± 0.78 |
| TTTTCATTAC | 1.26 ± 0.069 |
| GAGGCAATTT | 2.87 ± 0.68 |
| TTCCGGGTTT | 1.2 ± 0.31 |
| GGTAATAGGG | 0.996 ± 0.036 |
| TTGTTAGGTT | 1.06 ± 0.13 |
| GCAGGAAGAC | 3.48 ± 0.81 |

| Sequence | switch fluorescence ratio |
| --- | --- |
| GTTGCAGGTG | 2.06 ± 0.057 |
| GATGTTTGGG | 0.987 ± 0.019 |
| TGGCTGACTT | 1.01 ± 0.016 |
| AGTTAATGCT | 0.9856 ± 0.0026 |
| CGAGCTGGTT | 0.991 ± 0.0027 |
| TGATAGGGCG | 0.963 ± 0.08 |
| GAGTGAAGGG | 1.02 ± 0.016 |
| ACGAAGGTCT | 0.998 ± 0.012 |
| ATTGTTGTTT | 0.981 ± 0.019 |
| GTGAAGTATT | 0.983 ± 0.033 |
| GTGGGTCGTT | 1 ± 0.031 |
| GCGCGCCGGG | 1.01 ± 0.027 |
| AGTTGCTGCT | 0.995 ± 0.02 |
| GGGATATAGT | 0.9696 ± 0.0044 |
| TCGGCTGCGT | 1.03 ± 0.018 |
| ATGGAGTAAC | 0.987 ± 0.011 |
| TAAATTGATA | 0.9924 ± 0.0055 |
| ACTTGACCCG | 1.08 ± 0.064 |
| ACTAGGATGG | 0.99 ± 0.026 |
| TGCGTGAAAT | 0.9765 ± 0.0044 |
| TTCAGGTATG | 1.01 ± 0.028 |
| TCCTGCAGGA | 1.03 ± 0.014 |
| TAATATGGAG | 0.99 ± 0.034 |
| GGGGGATTTG | 0.998 ± 0.013 |
| TGAAGGACGT | 0.996 ± 0.019 |

| Sequence | switch fluorescence ratio |
| --- | --- |
| AATTTAATGG | 1.04 ± 0.053 |
| GCTGGGGCGT | 0.9851 ± 0.005 |
| GATAGCTTTT | 1.05 ± 0.082 |
| CAGCACAGGG | 1.18 ± 0.017 |
| GTTGTTTAGC | 0.974 ± 0.022 |
| CCTAGGGGAA | 1.02 ± 0.022 |
| AATGGTGGGG | 0.9912 ± 0.0053 |
| TCGTAGGGGG | 0.979 ± 0.072 |
| TGTTTCAAGT | 0.973 ± 0.064 |
| TAATGGTTAG | 1.016 ± 0.0048 |
| CTAGTCTTTT | 0.982 ± 0.031 |
| ATAGATGATC | 1 ± 0.031 |
| TTGGTTTGCT | 1.005 ± 0.0045 |
| TGGGAAGGCG | 0.983 ± 0.012 |
| TAACTAAATT | 0.98675 ± 0.00031 |
| CAATGGAGAA | 1.01 ± 0.021 |
| TGCTTCATAA | 1.01 ± 0.048 |
| CAATGGAGGA | 1.011 ± 0.0058 |
| GTGTGGGAGG | 1.04 ± 0.028 |
| CAGAGGCCAG | 0.993 ± 0.025 |
| TGAGTGACG | 1.0136 ± 0.00054 |
| AGTGGCAAGG | 0.9943 ± 0.0063 |
| GGGTAAGGCT | 1.01 ± 0.032 |
| AGACGAGGAA | 1.03 ± 0.058 |
| TTTAAGTAGG | 1.02 ± 0.048 |
